Consider four molecules from article PMC9668737, “Herpes simplex virus 1 protein pUL21 alters ceramide metabolism by activating the interorganelle transport protein CERT” (The Journal of Biological Chemistry, 2022).

Where “and” joins values, the source holds several entries; their conditions need not be identical. Equal values may be shown once.

In one assay the target is T1, pUL21-H6 (HSV-1 pUL21) (herpes simplex virus 1, UniProt F8RG07 1-535).
T1 construct: tegument protein pUL21 of herpes simplex virus 1, UniProt F8RG07; source: E. coli T7 Express lysY/Iq, purified (Ni-NTA, SEC); not shown: His6, C-terminal, kept
T1 sequence: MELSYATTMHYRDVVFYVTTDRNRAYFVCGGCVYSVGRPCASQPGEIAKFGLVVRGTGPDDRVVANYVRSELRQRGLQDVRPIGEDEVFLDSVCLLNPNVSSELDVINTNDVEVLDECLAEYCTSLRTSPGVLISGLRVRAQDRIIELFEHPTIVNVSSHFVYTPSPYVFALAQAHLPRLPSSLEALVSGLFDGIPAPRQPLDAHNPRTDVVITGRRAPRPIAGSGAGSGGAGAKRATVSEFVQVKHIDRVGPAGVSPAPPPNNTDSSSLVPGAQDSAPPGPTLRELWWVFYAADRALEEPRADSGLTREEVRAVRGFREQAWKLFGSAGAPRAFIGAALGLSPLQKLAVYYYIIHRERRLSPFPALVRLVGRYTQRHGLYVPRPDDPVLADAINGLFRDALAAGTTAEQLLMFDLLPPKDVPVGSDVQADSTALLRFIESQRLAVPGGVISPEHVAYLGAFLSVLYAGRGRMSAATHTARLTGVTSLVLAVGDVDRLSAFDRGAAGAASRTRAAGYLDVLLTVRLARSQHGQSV
The assay can be described thus: ITC; CERTL forms in the syringe titrated into pUL21 forms in the cell; 25 °C; 20 mM Tris pH 8.5, 500 mM NaCl, 0.5 mM TCEP; one-site binding model; single titrations. The following applies: both partners purified.

In another assay the target is T2, StrepII-CERT^P (UniProt Q9Y5P4-2 1-598, hyperphosphorylated (sites not given)).
T2 sequence (looked up): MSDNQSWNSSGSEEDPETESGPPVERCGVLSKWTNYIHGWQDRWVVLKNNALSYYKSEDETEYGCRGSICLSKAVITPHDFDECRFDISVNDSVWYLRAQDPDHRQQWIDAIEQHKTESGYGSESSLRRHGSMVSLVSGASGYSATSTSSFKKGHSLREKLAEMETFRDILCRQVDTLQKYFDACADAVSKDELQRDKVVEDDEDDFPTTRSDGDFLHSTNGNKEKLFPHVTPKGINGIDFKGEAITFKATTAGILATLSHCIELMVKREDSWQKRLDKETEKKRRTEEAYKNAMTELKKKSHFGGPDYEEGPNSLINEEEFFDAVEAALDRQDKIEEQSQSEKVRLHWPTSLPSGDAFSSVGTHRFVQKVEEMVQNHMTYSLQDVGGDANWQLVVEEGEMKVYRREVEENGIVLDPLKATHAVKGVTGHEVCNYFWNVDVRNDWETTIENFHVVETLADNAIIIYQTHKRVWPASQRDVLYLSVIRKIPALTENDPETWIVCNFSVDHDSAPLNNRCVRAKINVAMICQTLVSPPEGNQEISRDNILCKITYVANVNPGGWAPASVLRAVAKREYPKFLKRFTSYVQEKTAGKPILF
Briefly: cell-based or functional assay.

Assay [1] concerns the target T3, H6-pUL21C (C-terminal domain of HSV-1 pUL21, amino acids 275 to 535) (herpes simplex virus 1, UniProt F8RG07 275-535).
T3 construct: C-terminal domain of pUL21 of herpes simplex virus 1, residues 275-535 of UniProt F8RG07; source: E. coli T7 Express lysY/Iq, purified (Ni-NTA, SEC); not shown: MAH6, N-terminal, kept
T3 sequence: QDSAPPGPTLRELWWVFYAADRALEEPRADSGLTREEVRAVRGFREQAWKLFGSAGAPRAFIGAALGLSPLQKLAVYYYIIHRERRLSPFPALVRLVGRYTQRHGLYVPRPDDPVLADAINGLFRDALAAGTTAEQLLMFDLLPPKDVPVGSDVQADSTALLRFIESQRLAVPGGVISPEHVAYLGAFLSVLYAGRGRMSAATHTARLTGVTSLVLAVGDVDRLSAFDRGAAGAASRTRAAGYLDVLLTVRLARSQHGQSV
The assay can be described thus: ITC; CERTL forms in the syringe titrated into pUL21 forms in the cell; 25 °C; 20 mM Tris pH 8.5, 500 mM NaCl, 0.5 mM TCEP; one-site binding model; single titrations. The following applies: both partners purified.

The target of assay [2] is T4, pUL21^V382E-H6 (HSV-1 pUL21 with V382E) (herpes simplex virus 1, UniProt F8RG07 1-535, V382E).
T4 construct: tegument protein pUL21 of herpes simplex virus 1, UniProt F8RG07, with V382E; the text also writes H6-pUL21^V382E; also called H6-pUL21^V382E; source: E. coli T7 Express lysY/Iq, purified (Ni-NTA, SEC); not shown: His6, C-terminal, kept
T4 sequence: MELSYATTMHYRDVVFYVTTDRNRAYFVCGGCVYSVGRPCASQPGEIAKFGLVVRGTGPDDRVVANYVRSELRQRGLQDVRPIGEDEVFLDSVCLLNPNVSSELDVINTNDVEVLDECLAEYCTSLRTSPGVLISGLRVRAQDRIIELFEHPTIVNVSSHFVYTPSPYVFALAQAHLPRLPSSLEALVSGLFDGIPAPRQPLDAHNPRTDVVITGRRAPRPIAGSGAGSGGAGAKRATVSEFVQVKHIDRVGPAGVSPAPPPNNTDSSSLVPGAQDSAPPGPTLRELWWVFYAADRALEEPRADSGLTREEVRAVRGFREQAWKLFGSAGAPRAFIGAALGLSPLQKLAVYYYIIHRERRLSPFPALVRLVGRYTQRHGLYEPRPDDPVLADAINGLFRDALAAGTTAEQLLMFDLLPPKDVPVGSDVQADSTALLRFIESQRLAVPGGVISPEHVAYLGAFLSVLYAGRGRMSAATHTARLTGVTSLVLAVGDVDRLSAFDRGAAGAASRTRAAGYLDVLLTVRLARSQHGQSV
The assay is described as above. The conditions noted are these: both partners purified.

B1: StrepII-CERTL^P (hyperphosphorylated human CERTL) (natural protein, UniProt Q9Y5P4-1 1-624, looked up)
chain: MSDNQSWNSSGSEEDPETESGPPVERCGVLSKWTNYIHGWQDRWVVLKNNALSYYKSEDETEYGCRGSICLSKAVITPHDFDECRFDISVNDSVWYLRAQDPDHRQQWIDAIEQHKTESGYGSESSLRRHGSMVSLVSGASGYSATSTSSFKKGHSLREKLAEMETFRDILCRQVDTLQKYFDACADAVSKDELQRDKVVEDDEDDFPTTRSDGDFLHSTNGNKEKLFPHVTPKGINGIDFKGEAITFKATTAGILATLSHCIELMVKREDSWQKRLDKETEKKRRTEEAYKNAMTELKKKSHFGGPDYEEGPNSLINEEEFFDAVEAALDRQDKIEEQSQSEKVRLHWPTSLPSGDAFSSVGTHRFVQKPYSRSSSMSSIDLVSASDDVHRFSSQVEEMVQNHMTYSLQDVGGDANWQLVVEEGEMKVYRREVEENGIVLDPLKATHAVKGVTGHEVCNYFWNVDVRNDWETTIENFHVVETLADNAIIIYQTHKRVWPASQRDVLYLSVIRKIPALTENDPETWIVCNFSVDHDSAPLNNRCVRAKINVAMICQTLVSPPEGNQEISRDNILCKITYVANVNPGGWAPASVLRAVAKREYPKFLKRFTSYVQEKTAGKPILF
modifications: hyperphosphorylated (CERTL^P); sites not given
notes: ceramide transport protein CERT, longer cytoplasmic isoform CERTL (with exon 11), human, UniProt Q9Y5P4-1; not shown: StrepII, N-terminal, kept
In the case of B1, in the assay with pUL21-H6 (HSV-1 pUL21), the “stoichiometry N” value is 0.76 and 0.72 and 0.74.

B2: StrepII-CERTL^S132A (constitutively hypophosphorylated human CERTL) (natural protein, UniProt Q9Y5P4-1 1-624, looked up)
chain: MSDNQSWNSSGSEEDPETESGPPVERCGVLSKWTNYIHGWQDRWVVLKNNALSYYKSEDETEYGCRGSICLSKAVITPHDFDECRFDISVNDSVWYLRAQDPDHRQQWIDAIEQHKTESGYGSESSLRRHGAMVSLVSGASGYSATSTSSFKKGHSLREKLAEMETFRDILCRQVDTLQKYFDACADAVSKDELQRDKVVEDDEDDFPTTRSDGDFLHSTNGNKEKLFPHVTPKGINGIDFKGEAITFKATTAGILATLSHCIELMVKREDSWQKRLDKETEKKRRTEEAYKNAMTELKKKSHFGGPDYEEGPNSLINEEEFFDAVEAALDRQDKIEEQSQSEKVRLHWPTSLPSGDAFSSVGTHRFVQKPYSRSSSMSSIDLVSASDDVHRFSSQVEEMVQNHMTYSLQDVGGDANWQLVVEEGEMKVYRREVEENGIVLDPLKATHAVKGVTGHEVCNYFWNVDVRNDWETTIENFHVVETLADNAIIIYQTHKRVWPASQRDVLYLSVIRKIPALTENDPETWIVCNFSVDHDSAPLNNRCVRAKINVAMICQTLVSPPEGNQEISRDNILCKITYVANVNPGGWAPASVLRAVAKREYPKFLKRFTSYVQEKTAGKPILF
notes: ceramide transport protein CERT, longer cytoplasmic isoform CERTL, human, UniProt Q9Y5P4-1, with S132A; source: Freestyle 293F cells, stably transfected, doxycycline-induced, purified (StrepTrap, SEC); not shown: StrepII, N-terminal, kept
As for B2, in the assay with pUL21-H6 (HSV-1 pUL21), the “stoichiometry N” value was 0.93 and 1.01.

B3: pUL21^V382E-H6 (natural protein)
chain: MELSYATTMHYRDVVFYVTTDRNRAYFVCGGCVYSVGRPCASQPGEIAKFGLVVRGTGPDDRVVANYVRSELRQRGLQDVRPIGEDEVFLDSVCLLNPNVSSELDVINTNDVEVLDECLAEYCTSLRTSPGVLISGLRVRAQDRIIELFEHPTIVNVSSHFVYTPSPYVFALAQAHLPRLPSSLEALVSGLFDGIPAPRQPLDAHNPRTDVVITGRRAPRPIAGSGAGSGGAGAKRATVSEFVQVKHIDRVGPAGVSPAPPPNNTDSSSLVPGAQDSAPPGPTLRELWWVFYAADRALEEPRADSGLTREEVRAVRGFREQAWKLFGSAGAPRAFIGAALGLSPLQKLAVYYYIIHRERRLSPFPALVRLVGRYTQRHGLYEPRPDDPVLADAINGLFRDALAAGTTAEQLLMFDLLPPKDVPVGSDVQADSTALLRFIESQRLAVPGGVISPEHVAYLGAFLSVLYAGRGRMSAATHTARLTGVTSLVLAVGDVDRLSAFDRGAAGAASRTRAAGYLDVLLTVRLARSQHGQSV
On to B3, for which the “EC50 of pUL21^V382E-H6 (62.5 nM to 4 μM) for accelerating GST-PP1-mediated dephosphorylation of 0.5 μM CERT^P in vitro, all proteins purified, 25 nM GST-PP1γ, 30 min at 30 °C” value with StrepII-CERT^P is 3.33 μM.

B4: H6-miniCERTL (CERTL residues 20-131 plus 351-624) (domain or fragment, human, UniProt Q9Y5P4-1 20-131, looked up)
chain: SGPPVERCGVLSKWTNYIHGWQDRWVVLKNNALSYYKSEDETEYGCRGSICLSKAVITPHDFDECRFDISVNDSVWYLRAQDPDHRQQWIDAIEQHKTESGYGSESSLRRHGTSLPSGDAFSSVGTHRFVQKPYSRSSSMSSIDLVSASDDVHRFSSQVEEMVQNHMTYSLQDVGGDANWQLVVEEGEMKVYRREVEENGIVLDPLKATHAVKGVTGHEVCNYFWNVDVRNDWETTIENFHVVETLADNAIIIYQTHKRVWPASQRDVLYLSVIRKIPALTENDPETWIVCNFSVDHDSAPLNNRCVRAKINVAMICQTLVSPPEGNQEISRDNILCKITYVANVNPGGWAPASVLRAVAKREYPKFLKRFTSYVQEKTAGKPILF
notes: human CERTL, PH domain and start of the middle region, residues 20-131 of Q9Y5P4-1; human CERTL, end of the middle region and STARTL domain, residues 351-624 of Q9Y5P4-1 (middle region residues 132-350 left out); source: E. coli T7 Express lysY/Iq, purified (Ni-NTA, SEC); not shown: MAH6, N-terminal, kept
Consider B4, for which, in assay [1], the dissociation constant (Kd) was 5.5 µM and 3.15 µM; the “stoichiometry N” value was 0.95 and 1. In assay [2], the Kd was 8.39 µM and 8.83 µM and 7.04 µM; the “stoichiometry N” value was 1.22 and 1.01 and 1.25.
